Article PMC8627827 (Biomacromolecules, 2021)

Test: Subcutaneous pharmacokinetics in streptozotocin-induced diabetic rats
Parameters: species or system Male Sprague Dawley rats
Conditions: rat, in vivo, sc, 10 U/kg

insulin-PEG20k: insulin covalently modified with 20 kDa mPEG via insulin-BCN, long-acting control
Time to peak (serum insulin): 7 ± 1 h
